According to PMC3718016:

Experiments:
SRPK1(ΔSα1) = SRPK1(ΔSα1) (UniProt Q96SB4)
SRPK1(ΔNNT) = SRPK1(ΔNNT) (UniProt Q96SB4)
SRPK1(ΔNCT) = SRPK1(ΔNCT) (UniProt Q96SB4)
SRPK1(ΔSINT) = SRPK1(ΔSINT) (UniProt Q96SB4)
SRPK1(ΔSα2) = SRPK1(ΔSα2) (UniProt Q96SB4)
[1] = biological target: SRPK1(ΔN), SRPK1 without the N-terminus (UniProt Q96SB4)
[2] = biological target: SRPK1(ΔS), SRPK1 without the spacer insert domain (UniProt Q96SB4)

Substance: SR protein splicing factor 1 (SRSF1) (from UniProt Q07955 1-248) (natural protein)
- kcat/KSR (steady-state kinetics with maximum viscosity effect) (SRPK1(ΔSα1)): 2.2e+06 M⁻¹ s⁻¹
- Km for SRSF1 (KSR), steady-state phosphorylation of SRSF1 (SRPK1(ΔNNT)): 0.038 µM
- Km for SRSF1 (KSR), steady-state phosphorylation of SRSF1 (SRPK1(ΔNCT)): 0.41 µM
- kcat/KSR (steady-state kinetics with maximum viscosity effect) (SRPK1(ΔSINT)): 5.3e+06 M⁻¹ s⁻¹
- kcat/KSR (steady-state kinetics with maximum viscosity effect) (SRPK1(ΔSα2)): 6.9e+06 M⁻¹ s⁻¹
- Km for SRSF1 (KSR), steady-state phosphorylation of SRSF1 [1]: 0.44 µM
- Km for SRSF1 (KSR), steady-state phosphorylation of SRSF1 [2]: 0.14 µM
